Data taken from the supplement of paper PMC9170038.

Test system: MS2 coat protein
Test: apparent KD of MS2 coat protein; higher = weaker reporter binding
Conditions: Eterna round: R107
Method: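 RNA-MaP round R107: designed RNA switches with theophylline, tryptophan, arginine or FMN aptamers are transcribed on-chip within common flanks. They are titrated with SNAP-549-labelled MS2 coat protein in RNA-MaP buffer (100 mM Tris pH 7.5, 80 mM KCl, 4 mM MgCl2), without ligand or with the indicated ligand. Median apparent KD per design.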

[1] = input ligand: theophylline 20 uM
[2] = input ligand: tryptophan 2.4 mM
[3] = input ligand: theophylline 2 mM

Row | Sequence | apparent KD of MS2 coat protein (input ligand: arginine 13.2 mM) [µM] | apparent KD of MS2 coat protein [1] [µM] | apparent KD of MS2 coat protein [2] [µM] | apparent KD of MS2 coat protein (input ligand: none) [µM] | apparent KD of MS2 coat protein [3] [µM]
1 | AUCGUACCUGAUGAUACCAGCAUGUGCUCGUAACAUGAGGAUCACCCAUGUGAUCAGUGAUGCCCUUGGCAGCAUGAUCGGUGCA [Same State - Theophylline B (Freestyle 18)] | 0.094 | 0.134 | 0.167 |  | 
2 | AUGCAUAGCCGAAGGAGCGCAGUAGGAUGACAUGAGGAUCACCCAUGUGUGUGAUGUGGAUUGCAGGUAGGUCGCGGAGUGGUAU [Exclusion - Arginine B (Freestyle 5)] | 0.047 | 0.128 | 0.058 | 0.119 | 0.119
3 | GGACUAACCAGAAGGAGCGACGCGCAGAAACUGCAAAUUCCUCCACACGAGGAUCACCCGUGUCAGGUAGGUCGCUGGUUAGUCG | 0.0165 | 0.023 | 0.0182 | 0.0166 | 0.0161
4 | ACAUGAGGAUCACCCAUGUUCCUCGCCGAUACCAGUGAAGAAGAACGCCCUUGGCAGCGGAAAGAAUAUUUUGGAGAUGAGAUAU [6.V] | 0.0705 | 0.272 | 0.22 |  | 
5 | UUUUUUAACUGAAGGAGCGUCACAUGAGGAUCACCCAUGUAUUAGAUGAGAAGGAUCUUGUGGCAGGUAGGUCGCAGAGGAAGGG [e-argB-V] | 0.0996 | 0.187 | 0.136 | 0.389 | 0.181
6 | GCACUACAUGAGGAUCACCCAUGUGCAGAUACCAGAGGUGUAUGCCUCCCUUGGCAGCUGCGUCGCUCUGGCAGCUUGUGGGUUG [Same State Theophylline A GF18] | 0.0403 | 0.117 | 0.0815 |  | 
7 | GACCCAUGAGUUGUAAAAGCUCAUGGGUCGCGAGGACCGGUACGGCCGCCACUCGGCUGUACAUGAGGAUCACCCAUGUCAGGGU [#1 Same State - Tryptophan A Attempt #27 (HarryS)] | 0.0448 | 0.568 |  |  | 0.527
8 | AUCGUACCUGAUGAUACCAGCAAGUGAUCAUAACAUGAGGAUCACCCAUGUAAUCAGUGAUGCCCUUGGCAGCAUAAUCGAUACA [Same State - Theophylline B (Freestyle 4)] | 0.0916 | 0.204 | 0.164 |  | 
9 | ACAUGAGGAUCACCCAUGUAGCCUAGGGAAGGAGCGUCGUAAGAGACAGGUAGGUCGCCCGCAUGUGGAUCACCCAUGUCGAGGG [SSArg A #11] | 0.0274 | 0.0483 | 0.0387 | 0.0375 | 0.0436
10 | UGCAUCAUAAUCAUGUUGGUGCUAGGUGAUACCAGCAUCGAAAGAUGCCCUUGGCAGCACCAACAUGAGGAUCACCCAUGUAAUA [(MT)''-(M)'-(T')-(Theo)-(Ms2)_Design1/22_2] | 0.0692 | 0.165 | 0.027 |  | 
11 | GGUAACUCUACGGCCGCCACUGAACAUGAGGAUCACCCAUGUAAUGUUCAGAUUUUUUUUUUUUACAGGACCGGGUAGUGUUACC [Tryptophan B 4] | 0.107 | 0.276 |  |  | 0.275
12 | UUCUUUAAGUCGGCCGCCACUGAAACAUGAGGAUCACCCAUGUAUAUUUGUGUAAAGGUGGAUUACAGGACCGGGACUAUAGUAA [JR_Nu23_ExcTryptoB_Sub024] | 0.0121 | 0.0136 |  |  | 0.0117
13 | ACAUGAGGAUCACCCAUGUUCCUCAUUGAUACCAGUGAAUUUAGACGCCCUUGGCAGCGAGUUUUUUUAUAAGAUUUUUUUUUUU [6.I] | 0.239 | 0.839 | 0.916 |  | 
14 | AAUCGUAAGGCGGCCGCCACUACACAUGAGGAUCACCCAUGUCUCGCGGGCUUGCGUUGGGAUAGUAGGACCGGGCCAGUAAUAA [Exclusion - Tryptophan B (Freestyle 13)] | 0.0171 | 0.0337 | 0.0251 | 0.0262 | 0.0283
15 | AACAUGAGGAUCACCCAUGUAAAACCGGUACGAGGACCGGUACGGCCGCCACUCGAAACAUGAGGAUCACCCAUGUAAUAAUAUU [Same State Trypophan A GF 21] | 0.0352 | 0.075 | 0.0913 | 0.0635 | 0.0686
16 | ACAUGAGGAUCACCCAUGUAGUGGCACGAUACCAGCUGAUCCCGUGGCCCUUGGCAGCGUCCGGUGUGGUGCGCCGGGAUGGAGC [ZSZMULLIN] | 0.0218 | 0.0508 | 0.0356 | 0.0284 | 0.0407
17 | AAUUACAUGAGGAUCACCCAUGUGGCACAACGAGGACCGGUACGGCCGCCACUCGGUGCUGUACCACAAAACAUGCACGGGAAAG [theeternabot_sameState_MS2_Trp_A_6] | 0.0331 | 0.0814 | 0.0309 | 0.0316 | 0.039
18 | ACGAUAGCACCUGAGGAUCACCCAGGUGAUACCAGCCUGGAAACAGGCCCUUGGCAGCACCUAAAAUAAAGGUAACUAUCGAAUA [TheoAX6 #MicroSwitchBubble #AlternativeMS2] | 0.0573 | 0.251 | 0.0486 | 0.0506 | 0.105
19 | AGUCCUCUGUACCCUGAUGCCCUCACUUUACGAGGACCGGUACGGCCGCCACUCGAAUCCCAACAUGAGGAUCACCCAUGUCGAC [theeternabot_exclusion_MS2_Trp_A_26] | 0.03 | 0.04 |  |  | 0.047
20 | AUCAUGUAAUCAGAUACCAGACAUCUUUUAAUACAUAUUACAUGAGGAUCACCCAUGUUGGUCCCUUGGCAGCUGAAAUAUUUUU [JR_Nu_SSTheophyB_Sub027] | 0.128 | 0.191 | 0.246 |  | 
21 | GGUAUGUAUUCGGAAACGAAUGCAUACCAACGAGGACCGGUACGGCCGCCACUCGCCGUCCUCAAACAUGAGGAUCACCCAUGUA [Ex Tryptophan A 7] | 0.0195 | 0.0305 |  |  | 0.0306
22 | AACAUGAGGAUCACCCAUGUCUGAACUGAAGGAGCGCUAAACAAGGCAGGUAGGUCGCGGAAUUUUGUGUGCAUAUGCAUAUGGG [9.J] | 0.0228 | 0.0353 | 0.0247 | 0.0244 | 0.0296
23 | AAUAACAUGAGGAUCACCCAUGUAAAAGAUACCAGAGUGAUGAUCCUCCCUUGGCAGCUUAACGCUGAUUGAUUACAAUCAGCGA [TheoAS 3 #Tail #MS2BeforeAptamer #BothOrNeither] | 0.0464 | 0.128 | 0.0671 |  | 
24 | UUGUGGCGCUCGGCCGCCACUCCGACAUGAGGAUCACCCAUGUUCUACAUGAGGAUCACCCAUGUGAGGACCGGGAGACACAACC [Exclusion Tryptophan B GF12] | 0.137 | 0.102 | 0.165 | 0.126 | 0.134
25 | UGUAUGGACUGAAGGAGCGGAAAAUAACCAUGAGGAUCACCCAUGGAAUAGGCGAAAGCCAUCCAGGUAGGUCGCAGUCCAUACU | 0.0234 | 0.0324 | 0.0316 | 0.0316 | 0.0366
26 | CUUGUGGGCGGAAGGAGCGCGAUUACAUAACAUGAGGAUCACCCAUGUAAGAAAUUAUUCAUGCAGGUAGGUCGCCGUUCGUGGG [Same State Arginine B GF9] | 0.0248 | 0.0309 | 0.0252 | 0.0238 | 0.0241
27 | CUAUUGAUAGCGGCCGCCACUUACUCAUGAGGUAACAACAUGAGGAUCACCCAUGUUUGAGGAUCAAGGACCGGGCUAUUGAUAG [AstrosSSTryB#13] | 0.03 | 0.0339 | 0.0238 | 0.0276 | 0.0309
28 | GGAUAGGACACGGCCGCCACUAGCUAGGAUACUAGCAACAUUUCCUCACAAGAGGAUCACCCUUGUAGGACCGGGUGUCCUAUCG | 0.0849 | 0.115 | 0.139 | 0.0937 | 0.118
29 | CGAGUAAGUUCAAUCGAAUAACGGUUUUCGCGAGGACCGGUACGGCCGCCACUCGUGUGAUAUCACACAUGAGGAUCACCCAUGU [3'end-1] | 0.0427 | 0.0771 |  |  | 0.135
